Measurements from paper PMC3863775.
Like-named read-outs stand apart in the source and are kept apart here.

Assays:
Assay in all cases: cryo-EM structure; single-particle cryoEM of the icosahedral head of purified BPP-1 virions, frozen hydrated; 50 mM Tris-HCl, 250 mM NaCl, 1 mM MgCl2, pH7.5; ~3.5 Å (capsid), ~3.4 Å (averaged CP and MCP)
[1] = molecular target: cement protein (CP) Bbp16 of bacteriophage BPP-1 (Bordetella bacteriophage BPP-1)
[2] = molecular target: major capsid protein (MCP) Bbp17 of bacteriophage BPP-1 (Bordetella bacteriophage BPP-1)
[3] = molecular target: major capsid protein (MCP) Bbp17 of bacteriophage BPP-1 (Bordetella bacteriophage BPP-1); remark: listed apart in the source

Row | Substance | stoichiometry N [1] | stoichiometry N [2] | stoichiometry N [3]
1 | cement protein (CP) Bbp16 of bacteriophage BPP-1 (natural protein) | 2 |  | 
2 | major capsid protein (MCP) Bbp17 of bacteriophage BPP-1 (natural protein) |  | 6 | 5
